Reference: paper PMC12187842, “A novel molecule targeting neutrophil-mediated B-1a cell trogocytosis attenuates sepsis-induced acute lung injury” (Frontiers in Immunology, 2025)

B1: recombinant mouse CD47 (receptor, UniProt Q61735 19-140, looked up)
chain: QLLFSNVNSIEFTSCNETVVIPCIVRNVEAQSTEEMFVKWKLNKSYIFIYDGNKNSTTTDQNFTSAKISVSDLINGIASLKMDKRDAMVGNYTCEVTELSREGKTVIELKNRTVSWFSPNEK
notes: CD47, mouse, recombinant; UniProt Q61735 is printed for the in silico model; check the vendor's data sheet; also called rmCD47; source: bought: Abcam (Cat. No. AB231160)
B2: recombinant mouse (rm)Siglec-G (receptor, UniProt Q80ZE3 18-543, looked up)
chain: QMESYFLQVQRIVKAQEGLCIFVPCSFSSPEGKWLNRSPLYGYWFKGIRKPSLSFPVATNNKDKVLEWEARGRFQLLGDISKKNCSLLIKDVQWGDSTNYFFRMERGFERFSFKEEFRLQVEALTQKPDIFIPEVLEPGEPVTVVCLFSWTFNQCPAPSFSWMGDAVSFQESRPHTSNYSVLSFIPGLQHHDTELTCQLDFSRMSTQRTVRLRVAYAPRSLAISIFHDNVSVPDLHENPSHLEVQQGQSLRLLCTADSQPPATLSWVLEDQVLSWSSPVGSRTLALELPWVKAGDSGHYTCQAENRLGSQQHTLDLSVLYPPQDLRVTVSQANRTVLEILRNAISLPVLEGQSLCLVCVTYSNPPANVSWAWVTQTLIPIQSSEPGVLELPLVQREHEGEFTCAAQNPLGAQRISLSLSVHYPPQMSSPSCSWEAKGLHCNCSSRAWPAPSLRWRLGEGLLEGNSSNASFTVTFSSLGPWVNSSLSLLQELGPSLWLSCESWNTHGAQTTSVLLLPDKDSATAFSK
notes: Siglec-G, mouse, recombinant; UniProt Q80ZE3 is printed for the in silico model; check the vendor's data sheet; source: bought: R&D Systems (Cat. No. 10103-SL-050)

Tests used:
[1] = biological target: B2; experiment: SPR; OpenSPR (Nicoya), HS-Carboxyl sensor; rmCD47 immobilised by EDC/NHS coupling; rmSiglec-G as analyte at 100, 250 and 500 nM; PBS 0.05% P20, pH 7.4; 40 uL/min; 20°C; global fit for 1:1 binding; settings: both partners purified
rmCD47 = experiment: Surface plasmon resonance: rmSiglec-G binding to immobilized rmCD47; set-up: species or system mouse; settings: SPR (OpenSPR), rmCD47 immobilized on HS-carboxyl sensor, rmSiglec-G analyte 100, 250 and 500 nM, PBS 0.05% P20, pH 7.4, 20°C, 1:1 global fit; no C11; read-out: dissociation constant (KD) Siglec-G/CD47
Description: To examine the direct interaction between recombinant mouse (rm)Siglec-G (Cat. No. 10103-SL-050, R&D Systems, Minneapolis, MN) and rmCD47 (Cat. No. AB231160, Abcam, Cambridge, UK), surface plasmon resonance (SPR), using OpenSPR (Nicoya, Ontario, Canada), was performed. HS-Carboxyl sensor was used; rmCD47 was immobilized on the sensor surface; rmSiglec-G was in the reaction buffer, working as an analyte. Binding reactions were performed in PBS 0.05% P20, pH7.4. The carboxyl sensor was first cleaned by injecting 150 µL of 10 mM HCl, followed by injection of 150 µL of the mixture of 1 aliquot of N-ethyl-N′-[3-[…]]-carbodiimide (EDC) and 1 aliquot of N-hydroxysuccinimide (NHS) to activate the sensor surface. […] To evaluate the binding, the analyte ranging from 100 nM, 250 nM and 500 nM were injected into flow cell-1 and flow cell-2, and the real-time interaction data were analyzed by TraceDrawer (Nicoya). […] For peptide C11 efficacy on Siglec-G binding to CD47, with the same setting as Siglec-G binding with CD47 on HS-carboxyl sensor, peptide C11 at 1 µM preincubated with concentrations of rmSiglec-G 100 nM, 250 nM & 500 nM for 30 minutes and then injected into flow cell-1 and flow cell-2, and real-time interaction were analyzed ab TraceDrawer (Nicoya). […]

recombinant mouse CD47 = biological target: B1; experiment: SPR; same setting as a1 (rmCD47 immobilised on HS-carboxyl sensor); peptide C11 at 1 µM preincubated for 30 minutes with rmSiglec-G at 100, 250 and 500 nM, then injected; settings: both partners purified

## B1
[1]
  Kd: 10.8 nM

## B2
rmCD47
  Kd: 10.8 nM
Recombinant mouse CD47
  KD in the presence of 1 µM C11: 155 nM
